# B1: Dr ZNG1 N-terminal peptide (peptide)
# peptide: Ac-MEDEDECPELVPIKEKPSGP-NH2
# B2: Mm ZNG1 N-terminal peptide (peptide)
# peptide: Ac-AEEEYAEDCPELVPIETKNQE-NH2
# Tests used:
# TKPTS cells = assay: TKPTS cell proliferation by CellTrace flow cytometry; format: cell-based, murine
# Method: TKPTS cells were seeding at 2,000 to 4,000 cells per well of 24- or 12-well tissue culture treated multi-well plates and incubated overnight at 37° C. Cells were staining with CellTRACE violet (Invitrogen, C34557) as described by manufacturer's protocol. Briefly, CellTRACE solution was prepared in PBS at a 1:1,000 dilution, added to the cells, and cells were incubated for 20 min at 37° C. Cells were then washed two times in cell culture media supplemented with 7% FBS, and replaced with fresh cell culture media supplemented with desired chemical treatments (3 μM TPA, Sigma, 723134; 5 μg/ml TNP470, Sigma, T1455; or 50 nM Bengamide B, Santa cruz, sc-397521A). Stock solutions of drugs were prepared in ACS-grade DMSO (Fisher Scientific, D136). […] After three days of growth, cells were stained with MitoTracker far-red (Invitrogen, M22426; 1:2500 dilution for 20 min at 37° C.) and MitoSOX red (Molecular probes, M36008: 1,1000 for 20 min at 37° C.) following manufacture's protocols. Cells were washed with PBS, trypsinized, and transferred to Eppendorf tubes prior to fixation in 4% PFA (Alfa aesar, J61899). Cells were fixed for 20 min at room temperature, centrifuged at 200×g for 10 min and washed with PBS prior to resuspension in 300 μl FACS buffer (2% FBS, 0.02% sodium azide in PBS). All flow cytometry data were collected using a BD LSRII flow cytometer with FACSDIVA software and analyzed using FlowJo (FlowJo LLC). Samples were gated forward scatter height (FSC-H) by forward scatter area (FSC-A) and side scatter height (SSC-H) by side scatter area (SSC-A) to remove doublet populations. The singlet population was gated SSC-A by FSC-A to isolate live cells. The resulting cell population was then assessed for assay-specific fluorescent markers and the median fluorescence intensity (MFI) quantified.
# [1] = test system: zebrafish larvae (WT, zng1 mutant, metap1 mutant); assay: Zebrafish larval morphometry and gross pathology imaging; format: in vivo
# Method: (§1) For all experiments larval zebrafish were bred naturally and collected into embryo media and were maintained at 28° C. on a 14/10 h light/dark cycle for duration of experiments. For survival experiments, zebrafish larvae were split into even densities into 6 or 12 multi-well plates in 5 mL or 1 mL embryo media respectively at 3 dpf. Stock solutions of METAP2 inhibitor TNP-470 (Sigma, T1455) and METAP1/2 inhibitor Bengamide B (Santa cruz, sc-397521A) were prepared in ACS-grade DMSO (Fisher Scientific, D136) and TPEN (Sigma, P4413) was prepared in ethanol and stored at −20° C. TNP-470, Bengamide B, and/or TPEN were applied into embryo media as well as a DMSO and/or ethanol vehicle controls at 3 dpf. Zebrafish survival was monitored daily until 6 dpf and all moribund or dead animals were removed. For qPCR experiments, larvae were split at 3 dpf into groups of 20-30 larvae in 20 mL of embryo media supplemented either 20 μM of TPEN or ethanol vehicle control. For imaging experiments, 6 dpf zebrafish larvae treated with 500 nM to 1 μM of Bengamide B or vehicle control were imaged by a Leica Thunder M205FCA stereomicroscope with a Leica DFC9000 GT camera.
# [2] = test system: zebrafish larvae (WT and zng1^−/−); assay: Zebrafish larval survival under Metap inhibitor immersion; format: in vivo
# Method: as §1
# murine METAP1 = molecular target: T1, murine METAP1 (Mus musculus, UniProt Q8BP48); assay: Murine ZNG1 activation of METAP1 assay (Met release from MAHAIHY); format: biochemical
# T1 construct: final preparations of full-length METAP1 utilized in in vitro experiments in this study were purified, stripped of metal; 6xHis (N, cleaved yes); SUMO (N, cleaved yes); made in house; host or cells: E. coli BL21(DE3)
# Method: Methionine aminopeptidase activity was evaluated by quantifying the release of Met from the heptapeptide MAHAIHY (Genscript) as adapted from (Kabir-ud-Din, 2003). Reactions were conducted at 25° C. in 25 mM HEPES pH 7.4, 150 mM NaCl, 2 mM TCEP and consisted of 20 nM murine METAP1 with 0, 1, or 2 molar equivalents of Zn. Reactions were initiated with the addition of varying concentrations of MAHAIHY peptide. 50 μL aliquots were taken every 30 sec from 30-150 sec and the reaction was quenched with the addition of 10 μL glacial acetic acid (Supelco, Sigma-Aldrich). 60 μL of 4% w/v ninhydrin (Sigma-Aldrich) in 100% ACN was added to each quenched reaction and incubated at 37° C. for 1 h to detect free Met. The absorbance at 570 nm was measured and the cleaved Met concentration was determined from a standard curve of 10-500 μM Met. All data are reported as the average of triplicate measurements from each evaluated experimental condition. Midpoint and completed reactions were additionally analyzed by LC-ESI-MS to confirm the generation of the expected AHAIHY cleaved peptide product (FIG. 11 I).
# Activation assays were performed in 25 mM HEPES pH 7.4, 150 mM KCl, 2 mM MgCl2, 2 mM TCEP. 250 μM NTA was included where indicated. 10 μM Zn2METAP1 was incubated with 25 μM apo or ZnZNG1 (ZNG1 loaded with 0.9 eq, 22.5 μM, Zn) at 37° C. for 1 h. Reactions were diluted 500-fold in 25 mM HEPES pH 7.4, 150 mM NaCl, 2 mM TCEP to a final concentration of 20 nM METAP1 and methionine aminopeptidase activity was assayed as described above by initiating the enzymatic reaction with addition of 750 μM MAHAIHY. When using GTP, GDP, or GDPNP, the activation reaction contained 500 μM of the indicated nucleotide. A control activation reaction of Zn-NTA contained 22.5 μM and 250 μM NTA in reaction buffer.
# murine METAP1 1-79 = murine METAP1 1-79 (mouse, UniProt Q8BP48); assay: intrinsic Trp (W45) fluorescence quenching, 1:1 model
# Method: (§2) Peptide binding experiments were performed using an ISS PC1 spectrofluorometer at 25.0° C. Intrinsic Trp fluorescence was monitored using λₑₓ=292 nm nm and λₑₘ=350 nm, with quenching of the 350 nm emission maxima as aliquots of ZNG1 peptide were added. Different [METAP1_{1-59/1-79}] values were used for replicate experiments to better calculate the binding stoichiometry and analyzed globally. In a typical experiment, 5 μM METAP1_{1-59/1-79} in 2.5 mL were incubated for 10 min in chelexed buffer [25 mM HEPES (pH 7.4), 150 mM NaCl, and 2.5 mM TCEP], and aliquots of ZNG1 peptide were added. The equilibrium time was 2 min between subsequent additions of ZNG1 peptide. The peak emission intensities at 350 nm from triplicate experiments were globally fit to a 1:1 binding model using Dynafit (Kuzmic, 1996).
# (§3) METAP1 binding of ZNG1 peptides was confirmed by monitoring quenching of W45 fluorescence in murine METAP1₁₋₅₉ and METAP1₁₋₇₉, upon addition of chemically synthesized N-terminal ZNG1 peptides from human, mouse, and zebrafish (FIGS. 2D,E and 9 I). […] Combined, these findings identify the specific regions of interaction between ZNG1 and METAP1.
# murine METAP1 1-59 = murine METAP1 1-59 (mouse, UniProt Q8BP48); assay: as above
# Method: as §2, §3
# zebrafish Metap1 = molecular target: T2, zebrafish Metap1 (Danio rerio, UniProt Q4QRK0); assay: Zebrafish Metap1 methionine aminopeptidase activity (HPLC endpoint); format: biochemical; settings: 1 μM Dr Zng1 and 1 μM Metap1, 100 μM MAHAIHY
# T2 construct: Full-length zebrafish metap1 was amplified from 6 dpf whole larval cDNA and cloned into pLM302; 6xHis (N); MBP (N); made in house; host or cells: E. coli BL21(DE3)
# Method: A single endpoint assay was used for these experiments. Reaction buffer (20 mM HEPES (pH 7.5), 150 mM NaCl) was chelex treated overnight at 4° C. 1 μM solutions of zebrafish Metap1 and Zng1 were made in reaction buffer. To strip Zn from the METAP1 active site, 3 μM of TPEN was incubated with 1 μM METAP1 at 4° C. for 1 h. To prepare holo-Zng1 (Zn bound), Zng1 was incubated with 10 μM of ZnCl2 for 1 h at 4° C. As a control, Metap1 was incubated with reaction buffer alone. Following the 1 h incubation, Zng1 and Metap1 were washed four times with chelex-treated reaction buffer using protein concentration columns (Amicon Ultra, UFC500396). After washes, proteins were mixed and incubated at 37° C. for 30 min. Following incubation, 100 μM of the synthetic peptide MAHAIHY (Genscript) was added to reactions and incubated for 90 min at 37° C. Reactions were stopped by the addition of a final concentration of 2% trifluoroacetic acid and samples were centrifuged at max speed for 5 min. […]
# Twenty μL of each sample and standard was analyzed on an Agilent 1260 Infinity II system. […] MAHAIHY and AHAIHY were detected using absorbance at 280 nm, and retention times were confirmed using each standard. Methionine aminopeptidase relative activity was determined by calculating the percent of MAHAIHY converted to AHAIHY using the AUC values at 280 nm for each peptide.
# [3] = 10 μM Zn2METAP1, 25 μM ZNG1, no nucleotide
molecule,measurement,setting,value
CCCCCCCCCCCCCC(=O)O[C@H]1CC[C@H](NC(=O)[C@H](OC)[C@H](O)[C@@H](O)[C@H](O)/C=C/C(C)C)C(=O)N(C)C1 [Bengamide B],proliferation (CellTrace),"TKPTS cells; WT TKPTS cells, 50 nM Bengamide B",reduced cellular proliferation
same,height at anterior anal fin (HAA),"[1]; WT larvae, 6 dpf, three days 500 nM vs vehicle",significantly reduced HAA
same,"morphologic abnormalities (PCE, YSE, USB, CD)","[1]; metap1 mutant larvae vs WT controls at 6 dpf, 1 μM",significantly higher morphologic abnormalities
same,survival,"[2]; WT control larvae, 1 μM inhibitor, three days of treatment",remained viable
same,lethality,"[2]; zng1 mutant larvae, 1 μM inhibitor, three days of treatment",100%
same,viability,"[2]; zng1 mutant larvae, co-treatment 500 nM Bengamide B and TPEN vs 500 nM Bengamide B alone",decreased viability
CO[C@@H]1[C@H](OC(=O)NC(=O)CCl)CC[C@]2(CO2)[C@H]1[C@@]1(C)O[C@@H]1CC=C(C)C [TNP-470],proliferation (CellTrace),"TKPTS cells; Zng1^−/− cells relative to WT, 5 μg/ml TNP-470",slowed proliferation
same,survival,"[2]; zng1 mutant larvae compared to WT, Zn-deplete conditions (TPEN)",more pronounced
same,survival,"[2]; zng1 mutant larvae compared to WT, immersion, three days",decreased survival
ApoZNG1: recombinant murine ZNG1 devoid of bound metal,activation of Zn2METAP1,murine METAP1; [3],no activation
Hs ZNG1 N-terminal peptide,Kd,murine METAP1 1-79,100 nM
same,Kd,murine METAP1 1-59,100 nM
"Zebrafish Zng1: recombinant zebrafish Zng1, Zn bound (holo-Zng1)",apo-Metap1 activity,zebrafish Metap1,stimulates
ZnZNG1: recombinant murine ZNG1 loaded with 0.9 eq Zn at the high-affinity site,activation of Zn2METAP1,murine METAP1; [3],recovers small amounts of Zn4METAP1 activity
same,activation of Zn2METAP1,"murine METAP1; 250 μM NTA, GDPNP",no effect
same,activation of Zn2METAP1,"murine METAP1; 250 μM NTA, GTP, above that of NTA-bound Zn",significant activation
same,activation of Zn2METAP1,"murine METAP1; 250 μM NTA, presence and absence of GDP",only minor activation
same,activation of Zn4METAP1,"murine METAP1; fully metalated Zn4METAP1, absence of nucleotide",no activation
same,activation of Zn2METAP1,murine METAP1; in the presence of 500 μM GDP,some ZnZNG1-dependent activation
same,activation of Zn2METAP1,murine METAP1; in the presence of 500 μM GDPNP,no activation
same,activation of Zn2METAP1,murine METAP1; in the presence of 500 μM GTP,nearly fully activates
B1,Kd,murine METAP1 1-79,~100 nM
same,Kd,murine METAP1 1-59,~100 nM
B2,Kd,murine METAP1 1-79,~100 nM
same,Kd,murine METAP1 1-59,~100 nM

# Reference: patent US20250304625A1, “ARTICLES AND METHODS FOR INHIBITING METHIONINE AMINOPEPTIDASE ACTIVITY” (Vanderbilt University, priority 2022, published 2025)
